# From the supplement of paper PMC7125110
# ± gives the standard error. This sample holds only a part of the variants without activity.
# B1: glmS ribozyme (parent)
# chain: AUAAAAGCGCCAGAACUACAGAAAUGUAGUUGACGAGGAGGAGGUUUAUCGAAUUUUCGGCGGAUGCCUCCAAA
# Tests used:
# Settings in all cases: with glucosamine-6-phosphate
# glucosamine-6-phosphate [1] = variants of: B1; assay: self-cleavage kobs at 40 uM GlcN6P; higher = faster cleavage; RNA array
# Procedure, shortened: (§1)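 Tracking of barcoded ribozyme variants used a hybridised Cy3 probe at 37 °C, after in situ transcription by E. coli RNA polymerase on sequenced MiSeq chips. The flowed solution held 40 μM to 10 mM glucosamine-6-phosphate in HEPES/KCl/Mg(OAc)2 buffer, and imaging ran over ~14 h. kobs was taken from exponential decay fits of normalised per-tile medians, and kcat and KM from weighted Michaelis–Menten fits.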
# glucosamine-6-phosphate [2] = variants of: B1; assay: self-cleavage kobs at 160 uM GlcN6P; higher = faster cleavage; RNA array
# Procedure, shortened: as §1
# glucosamine-6-phosphate [3] = variants of: B1; assay: self-cleavage kobs at 640 uM GlcN6P; higher = faster cleavage; RNA array
# Procedure, shortened: as §1
# glucosamine-6-phosphate [4] = variants of: B1; assay: self-cleavage kobs at 2500 uM GlcN6P; higher = faster cleavage; RNA array
# Procedure, shortened: as §1
# glucosamine-6-phosphate [5] = variants of: B1; assay: self-cleavage kobs at 10000 uM GlcN6P; higher = faster cleavage; RNA array
# Procedure, shortened: as §1
Variant,self-cleavage kobs at 40 uM GlcN6P (glucosamine-6-phosphate [1]) [s⁻¹],self-cleavage kobs at 160 uM GlcN6P (glucosamine-6-phosphate [2]) [s⁻¹],self-cleavage kobs at 640 uM GlcN6P (glucosamine-6-phosphate [3]) [s⁻¹],self-cleavage kobs at 2500 uM GlcN6P (glucosamine-6-phosphate [4]) [s⁻¹],self-cleavage kobs at 10000 uM GlcN6P (glucosamine-6-phosphate [5]) [s⁻¹]
G7U U57G C61A C68U C70U,5.84e-05 ± 2.5e-05,,,,
A6G G44C,< 1e-05,< 1e-05,< 1e-05,< 1e-05,< 1e-05
A42U G44A,< 1e-05,< 1e-05,< 1e-05,< 1e-05,
A15G A33G G41C,< 1e-05,,,,< 1e-05
A33U C67G C70U,< 1e-05,,,,
G9A G60A,< 1e-05,,< 1e-05,,
A36G G60U G66U,< 1e-05,,< 1e-05,< 1e-05,< 1e-05
C34G A36U U46A A52G C71A,< 1e-05,< 1e-05,< 1e-05,,< 1e-05
C8U G32C G60U,< 1e-05,< 1e-05,< 1e-05,< 1e-05,< 1e-05
A36C G40U C67U,< 1e-05,< 1e-05,< 1e-05,,< 1e-05
G41A U49C C67U,< 1e-05,,,,
A15G G21U A33G,< 1e-05,,,,< 1e-05
G43C G62U,< 1e-05,< 1e-05,< 1e-05,< 1e-05,< 1e-05
U46G G51C,< 1e-05,,< 1e-05,,< 1e-05
A15G C71U,0.00111 ± 0.0001,0.00193 ± 0.00039,0.00696 ± 0.0013,0.0534 ± 0.021,0.0519 ± 0.014
U30G C61A,< 1e-05,,,,< 1e-05
A42U G59C,< 1e-05,< 1e-05,< 1e-05,< 1e-05,< 1e-05
U30G A33U U56A G63U G66U,< 1e-05,,,,< 1e-05
U31A G59A G62A,< 1e-05,,,,
A6C G32C G60U,< 1e-05,,,,< 1e-05
G63C U65C,< 1e-05,,,,< 1e-05
A36U U69G C71U,0.000104 ± 4.8e-05,,,,
U31C G38A U46G,< 1e-05,,,,

Variant,self-cleavage kobs at 40 uM GlcN6P (glucosamine-6-phosphate [1]) [s⁻¹],self-cleavage kobs at 160 uM GlcN6P (glucosamine-6-phosphate [2]) [s⁻¹],self-cleavage kobs at 640 uM GlcN6P (glucosamine-6-phosphate [3]) [s⁻¹],self-cleavage kobs at 2500 uM GlcN6P (glucosamine-6-phosphate [4]) [s⁻¹],self-cleavage kobs at 10000 uM GlcN6P (glucosamine-6-phosphate [5]) [s⁻¹]
G43C U47G,< 1e-05,,< 1e-05,,< 1e-05
G13U A39C G44A,< 1e-05,,,,< 1e-05
G40C C67G C71U,< 1e-05,,,,
A15C U49A,< 1e-05,,< 1e-05,,< 1e-05
G32C A53U G59C C71U,< 1e-05,,< 1e-05,,< 1e-05
C16U U55A,0.000949 ± 0.00012,0.00192 ± 0.00041,0.00568 ± 0.0014,0.0131 ± 0.0022,0.0419 ± 0.0089
G13C G35U,< 1e-05,< 1e-05,,,< 1e-05
G13U G60C,< 1e-05,,,,< 1e-05
C10A A14U,< 1e-05,,< 1e-05,,
A6U A36U C70U,< 1e-05,,,,
C8A G37C U69G C71G,0.000455 ± 0.00017,,,,
C10U C11G,< 1e-05,,< 1e-05,< 1e-05,< 1e-05
U55C G63U U69A,< 1e-05,,< 1e-05,,< 1e-05
G40C,0.000161 ± 2.8e-06,0.000388 ± 1.8e-05,0.00123 ± 3.8e-05,0.00453 ± 0.0002,
C16G G29U C71U,0.000193 ± 4.3e-05,,0.00358 ± 0.00079,0.00344 ± 0.0014,0.013 ± 0.0037
U31A U45C A48U,< 1e-05,,< 1e-05,,
C8A C50G A53U C67U,0.000239 ± 5.6e-05,,0.000168 ± 5.7e-05,0.000626 ± 0.00028,0.000304 ± 5e-05
A6C C11G U30G G35U C50G C58G,0.00011 ± 2.3e-05,,,0.000242 ± 4.4e-05,0.000175 ± 5.1e-05
U46C G60C,< 1e-05,< 1e-05,< 1e-05,< 1e-05,< 1e-05
U45C C58G,< 1e-05,< 1e-05,< 1e-05,,
C34G A53C,< 1e-05,< 1e-05,< 1e-05,< 1e-05,< 1e-05
C11U G41U A64U,< 1e-05,< 1e-05,,< 1e-05,< 1e-05
A48C G62A,< 1e-05,< 1e-05,< 1e-05,< 1e-05,< 1e-05

Variant,self-cleavage kobs at 40 uM GlcN6P (glucosamine-6-phosphate [1]) [s⁻¹],self-cleavage kobs at 160 uM GlcN6P (glucosamine-6-phosphate [2]) [s⁻¹],self-cleavage kobs at 640 uM GlcN6P (glucosamine-6-phosphate [3]) [s⁻¹],self-cleavage kobs at 2500 uM GlcN6P (glucosamine-6-phosphate [4]) [s⁻¹],self-cleavage kobs at 10000 uM GlcN6P (glucosamine-6-phosphate [5]) [s⁻¹]
A33U G41A C50A A53C G60C,< 1e-05,,,,< 1e-05
U45A C68A,< 1e-05,< 1e-05,< 1e-05,3.91e-05 ± 1.9e-05,
A6C G40A,< 1e-05,< 1e-05,,,2.46e-05 ± 9.8e-06
G35A A36G,< 1e-05,< 1e-05,< 1e-05,< 1e-05,
A6G G43C,< 1e-05,< 1e-05,< 1e-05,< 1e-05,< 1e-05
C11G U30G A36C A64U U65C,< 1e-05,< 1e-05,< 1e-05,< 1e-05,< 1e-05
C8U G29A G40U U45A,< 1e-05,,,,< 1e-05
G37A A52C C61A,< 1e-05,,,,< 1e-05
A15G C70U,0.00115 ± 0.00011,0.00217 ± 0.00032,0.0045 ± 0.00057,0.0168 ± 0.0062,0.0598 ± 0.012
A6C A12G U56C,< 1e-05,,,,< 1e-05
C10G G29A A48G,< 1e-05,,,,
A36U U47G A53G C68G,7.44e-05 ± 2.6e-05,,,,0.000107 ± 3.7e-05
A36G C58U,< 1e-05,,< 1e-05,< 1e-05,< 1e-05
A15C C16A U31G A36G A39G A42C,< 1e-05,,,< 1e-05,
U46G U54C C71U,8.18e-05 ± 1.8e-05,,,0.00226 ± 0.00098,0.00463 ± 0.0014
G32C G41C,< 1e-05,< 1e-05,< 1e-05,< 1e-05,< 1e-05
G35C U55C,< 1e-05,< 1e-05,,< 1e-05,< 1e-05
U54C G63U A64C,< 1e-05,,,,< 1e-05
C8U C11U U45C G63C,< 1e-05,,,,
G51C C70A,< 1e-05,,< 1e-05,,
U30G A64U,< 1e-05,< 1e-05,,,
A14C A52C,< 1e-05,< 1e-05,< 1e-05,,< 1e-05
G59C C70U,< 1e-05,,< 1e-05,,

Variant,self-cleavage kobs at 40 uM GlcN6P (glucosamine-6-phosphate [1]) [s⁻¹],self-cleavage kobs at 160 uM GlcN6P (glucosamine-6-phosphate [2]) [s⁻¹],self-cleavage kobs at 640 uM GlcN6P (glucosamine-6-phosphate [3]) [s⁻¹],self-cleavage kobs at 2500 uM GlcN6P (glucosamine-6-phosphate [4]) [s⁻¹],self-cleavage kobs at 10000 uM GlcN6P (glucosamine-6-phosphate [5]) [s⁻¹]
C8A C10A,< 1e-05,< 1e-05,< 1e-05,,
G60A C61G,< 1e-05,,,< 1e-05,< 1e-05
A33U G37C,< 1e-05,< 1e-05,,,< 1e-05
G44A A52U,< 1e-05,< 1e-05,< 1e-05,,
U31C U45C C58A C61G C67G,< 1e-05,,,,< 1e-05
G32A G35A,< 1e-05,< 1e-05,< 1e-05,< 1e-05,< 1e-05
A14G A48C C68A,< 1e-05,< 1e-05,,,< 1e-05
A36U G43C,< 1e-05,< 1e-05,< 1e-05,< 1e-05,
G41U C50G,< 1e-05,,< 1e-05,,< 1e-05
G7U C11A C61G,< 1e-05,,,,
A53C G59A,< 1e-05,,< 1e-05,,
A6C U49G,< 1e-05,,< 1e-05,,
A36U C50G A64G C70G,0.000457 ± 0.00012,,,0.000298 ± 0.00013,0.000194 ± 4.9e-05
C8A A12U,< 1e-05,,< 1e-05,< 1e-05,< 1e-05
G40U G41U U47G G62U G63U,< 1e-05,,,,< 1e-05
C50G C58U,0.000198 ± 9.7e-05,9.14e-05 ± 2.2e-05,,0.000443 ± 0.00019,
A12C U55G,0.000833 ± 0.00013,0.000979 ± 0.00021,0.00404 ± 0.00084,0.00822 ± 0.0022,0.0274 ± 0.0044
A6G G9C G59U,< 1e-05,,,< 1e-05,
C11A G38A G44C,< 1e-05,,,,< 1e-05
U46C U57A,< 1e-05,,,,5.47e-05 ± 1.8e-05
